Results from patent US20220048967A1 (published 2022).
Numbered stars: 1 amine (or outer) side, 2 acyl side, 3 side chain; on linkers, the order of the positions; unused ones are H or OH. Square brackets hold non-standard residues; d marks the D form. Side chains are listed from the residue outwards. Ends that are not written are not given here. * marks the point of attachment. C20 diacid = O=C(O)CCCCCCCCCCCCCCCCCCC(=O)*; γGlu = O=C(O)[C@H](CCC(=O)[*:2])N[*:1]; AEEA = NCCOCCOCC(=O)O; Aib = CC(C)(N)C(=O)O

T1: human GIP receptor (human, UniProt P48546 22-466)
T1 sequence (looked up): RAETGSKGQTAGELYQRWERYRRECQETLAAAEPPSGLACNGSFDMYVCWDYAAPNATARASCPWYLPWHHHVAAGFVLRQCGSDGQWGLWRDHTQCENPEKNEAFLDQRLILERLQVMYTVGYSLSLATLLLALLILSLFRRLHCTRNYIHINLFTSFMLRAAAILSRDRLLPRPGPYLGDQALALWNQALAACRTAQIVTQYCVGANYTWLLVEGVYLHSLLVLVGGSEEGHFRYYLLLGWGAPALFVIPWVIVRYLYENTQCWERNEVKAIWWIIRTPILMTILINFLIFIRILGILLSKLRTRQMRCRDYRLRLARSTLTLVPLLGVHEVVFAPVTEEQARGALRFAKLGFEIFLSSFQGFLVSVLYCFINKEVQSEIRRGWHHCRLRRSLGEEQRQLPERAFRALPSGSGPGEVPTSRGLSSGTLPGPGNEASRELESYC


Assays:
[1] = target: T1, human GIP receptor; assay: cell-based or functional assay
[2] = target: human GLP-1 receptor (human, UniProt P43220 24-463); assay: cell-based or functional assay

Binder | hGIPR cAMP EC50 ratio [1] | hGIPR cAMP Rel EC50 [1] [nM] | hGLP1R cAMP EC50 ratio [2] | hGLP1R cAMP Rel EC50 [2] [nM]
Y[Aib]EGTFTSDYSILLDKIAQ[Aib]AFIEYLIEGGPSSGAPPK([AEEA-AEEA-γGlu-C20 diacid])S-NH2 (N-terminus assumed; SMILES CC[C@H](C)[C@H](NC(=O)[C@H](CCCCN)NC(=O)[C@H](CC(=O)O)NC(=O)[C@H](CC(C)C)NC(=O)[C@H](CC(C)C)NC(=O)[C@@H](NC(=O)[C@H](CO)NC(=O)[C@H](Cc1ccc(O)cc1)NC(=O)[C@H](CC(=O)O)NC(=O)[C@H](CO)NC(=O)[C@@H](NC(=O)[C@H](Cc1ccccc1)NC(=O)[C@@H](NC(=O)CNC(=O)[C@H](CCC(=O)O)NC(=O)C(C)(C)NC(=O)[C@@H](N)Cc1ccc(O)cc1)[C@@H](C)O)[C@@H](C)O)[C@@H](C)CC)C(=O)N[C@@H](C)C(=O)N[C@@H](CCC(N)=O)C(=O)NC(C)(C)C(=O)N[C@@H](C)C(=O)N[C@@H](Cc1ccccc1)C(=O)N[C@H](C(=O)N[C@@H](CCC(=O)O)C(=O)N[C@@H](Cc1ccc(O)cc1)C(=O)N[C@@H](CC(C)C)C(=O)N[C@H](C(=O)N[C@@H](CCC(=O)O)C(=O)NCC(=O)NCC(=O)N1CCC[C@H]1C(=O)N[C@@H](CO)C(=O)N[C@@H](CO)C(=O)NCC(=O)N[C@@H](C)C(=O)N1CCC[C@H]1C(=O)N1CCC[C@H]1C(=O)N[C@@H](CCCCNC(=O)COCCOCCNC(=O)COCCOCCNC(=O)CC[C@H](NC(=O)CCCCCCCCCCCCCCCCCCC(=O)O)C(=O)O)C(=O)N[C@@H](CO)C(N)=O)[C@@H](C)CC)[C@@H](C)CC) [Example 47] | 0.654 | 0.287 | 0.089 | 0.702
Y[Aib]EGTFTSDYSILLDKIAQ[Aib]AFIEYLIEGGPSSGAPPPSK([AEEA-AEEA-γGlu-C20 diacid])-NH2 (N-terminus assumed; SMILES CC[C@H](C)[C@H](NC(=O)[C@H](CCCCN)NC(=O)[C@H](CC(=O)O)NC(=O)[C@H](CC(C)C)NC(=O)[C@H](CC(C)C)NC(=O)[C@@H](NC(=O)[C@H](CO)NC(=O)[C@H](Cc1ccc(O)cc1)NC(=O)[C@H](CC(=O)O)NC(=O)[C@H](CO)NC(=O)[C@@H](NC(=O)[C@H](Cc1ccccc1)NC(=O)[C@@H](NC(=O)CNC(=O)[C@H](CCC(=O)O)NC(=O)C(C)(C)NC(=O)[C@@H](N)Cc1ccc(O)cc1)[C@@H](C)O)[C@@H](C)O)[C@@H](C)CC)C(=O)N[C@@H](C)C(=O)N[C@@H](CCC(N)=O)C(=O)NC(C)(C)C(=O)N[C@@H](C)C(=O)N[C@@H](Cc1ccccc1)C(=O)N[C@H](C(=O)N[C@@H](CCC(=O)O)C(=O)N[C@@H](Cc1ccc(O)cc1)C(=O)N[C@@H](CC(C)C)C(=O)N[C@H](C(=O)N[C@@H](CCC(=O)O)C(=O)NCC(=O)NCC(=O)N1CCC[C@H]1C(=O)N[C@@H](CO)C(=O)N[C@@H](CO)C(=O)NCC(=O)N[C@@H](C)C(=O)N1CCC[C@H]1C(=O)N1CCC[C@H]1C(=O)N1CCC[C@H]1C(=O)N[C@@H](CO)C(=O)N[C@@H](CCCCNC(=O)COCCOCCNC(=O)COCCOCCNC(=O)CC[C@H](NC(=O)CCCCCCCCCCCCCCCCCCC(=O)O)C(=O)O)C(N)=O)[C@@H](C)CC)[C@@H](C)CC) [Example 49] | 1.69 | 0.0868 | 0.112 | 0.597
Y[Aib]EGTFTSDYSILLDKIAQ[Aib]AFIEYLIEGGPSSGAPPPK([AEEA-AEEA-γGlu-C20 diacid])-NH2 (N-terminus assumed; SMILES CC[C@H](C)[C@H](NC(=O)[C@H](CCCCN)NC(=O)[C@H](CC(=O)O)NC(=O)[C@H](CC(C)C)NC(=O)[C@H](CC(C)C)NC(=O)[C@@H](NC(=O)[C@H](CO)NC(=O)[C@H](Cc1ccc(O)cc1)NC(=O)[C@H](CC(=O)O)NC(=O)[C@H](CO)NC(=O)[C@@H](NC(=O)[C@H](Cc1ccccc1)NC(=O)[C@@H](NC(=O)CNC(=O)[C@H](CCC(=O)O)NC(=O)C(C)(C)NC(=O)[C@@H](N)Cc1ccc(O)cc1)[C@@H](C)O)[C@@H](C)O)[C@@H](C)CC)C(=O)N[C@@H](C)C(=O)N[C@@H](CCC(N)=O)C(=O)NC(C)(C)C(=O)N[C@@H](C)C(=O)N[C@@H](Cc1ccccc1)C(=O)N[C@H](C(=O)N[C@@H](CCC(=O)O)C(=O)N[C@@H](Cc1ccc(O)cc1)C(=O)N[C@@H](CC(C)C)C(=O)N[C@H](C(=O)N[C@@H](CCC(=O)O)C(=O)NCC(=O)NCC(=O)N1CCC[C@H]1C(=O)N[C@@H](CO)C(=O)N[C@@H](CO)C(=O)NCC(=O)N[C@@H](C)C(=O)N1CCC[C@H]1C(=O)N1CCC[C@H]1C(=O)N1CCC[C@H]1C(=O)N[C@@H](CCCCNC(=O)COCCOCCNC(=O)COCCOCCNC(=O)CC[C@H](NC(=O)CCCCCCCCCCCCCCCCCCC(=O)O)C(=O)O)C(N)=O)[C@@H](C)CC)[C@@H](C)CC) [Example 48] | 0.863 | 0.168 | 0.0966 | 0.691
Y[Aib]EGTFTSDYSILLDKK([AEEA-AEEA-γGlu-C20 diacid])AQ[Aib]AFIEYLIEGGPSSG-NH2 (N-terminus assumed; SMILES CC[C@H](C)[C@H](NC(=O)[C@H](CC(C)C)NC(=O)[C@H](Cc1ccc(O)cc1)NC(=O)[C@H](CCC(=O)O)NC(=O)[C@@H](NC(=O)[C@H](Cc1ccccc1)NC(=O)[C@H](C)NC(=O)C(C)(C)NC(=O)[C@H](CCC(N)=O)NC(=O)[C@H](C)NC(=O)[C@H](CCCCNC(=O)COCCOCCNC(=O)COCCOCCNC(=O)CC[C@H](NC(=O)CCCCCCCCCCCCCCCCCCC(=O)O)C(=O)O)NC(=O)[C@H](CCCCN)NC(=O)[C@H](CC(=O)O)NC(=O)[C@H](CC(C)C)NC(=O)[C@H](CC(C)C)NC(=O)[C@@H](NC(=O)[C@H](CO)NC(=O)[C@H](Cc1ccc(O)cc1)NC(=O)[C@H](CC(=O)O)NC(=O)[C@H](CO)NC(=O)[C@@H](NC(=O)[C@H](Cc1ccccc1)NC(=O)[C@@H](NC(=O)CNC(=O)[C@H](CCC(=O)O)NC(=O)C(C)(C)NC(=O)[C@@H](N)Cc1ccc(O)cc1)[C@@H](C)O)[C@@H](C)O)[C@@H](C)CC)[C@@H](C)CC)C(=O)N[C@@H](CCC(=O)O)C(=O)NCC(=O)NCC(=O)N1CCC[C@H]1C(=O)N[C@@H](CO)C(=O)N[C@@H](CO)C(=O)NCC(N)=O) [Example 50] | 1.96 | 0.0794 | 0.675 | 0.0961
